Assay results as given in the supplement of paper PMC10567573.

B1: EHMT1 (parent)
chain: EEINKNISDFGRQQLLPPFPSLHQ
B2: TRIM43 (parent)
chain: RAQMIRNEYRKLHPVLHKEEKQHL

Variants of: B1
Assay: protein stability index of a GFP-peptide fusion (GPS, HEK-293T) (PSI 1-6); higher = more stable
Conditions: c terminus: a fixed tail appended
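Note: lentivirally expressed fusions sorted by FACS into six bins by GFP to DsRed ratio, PSI derived from sequencing read proportions per bin multiplied by bin number.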

Protein stability index of substitutions, site by site:
P20: K 3.3 | R 2.5 | Y 2.59 | M 2.51 | H 2.69 | D 3.5 | G 3.37 | I 2.69 | C 2.87 | S 3.22 | A 2.82 | E 3.73 | V 3.02 | Q 3.31 | F 2.61 | W 1.82 | T 3.01 | L 2.73 | N 3.32
Q24: R 2.96 | G 2.53 | W 3.45 | N 2.9 | E 4.23 | T 2.34 | P 3.43 | C 1.91 | H 2.43 | M 2.77 | Y 2.49 | V 2.65 | S 2.5 | L 3.78 | F 2.81 | K 3.55 | D 4.02 | I 2.17 | A 2.42
R12: I 2.93 | M 2.47 | G 3.15 | V 3.25 | K 3.06 | W 2.24 | D 3.64 | Y 2.86 | C 2.79 | F 2.23 | T 3.52 | Q 2.97 | L 2.74 | P 3.38 | A 3.2 | H 2.77 | E 3.46 | N 3.5 | S 3.12
Q14: G 2.92 | W 2.03 | S 2.62 | C 2.18 | I 2.77 | V 2.77 | K 2.84 | H 2.29 | T 2.45 | N 2.54 | A 2.74 | R 2.45 | F 2.02 | M 2.49 | D 2.84 | P 2.39 | E 3 | L 2.31 | Y 1.78
L16: W 2.65 | Y 2.45 | Q 3.83 | F 2.42 | N 3.71 | P 3.34 | C 3.26 | R 3.23 | E 3.72 | A 3.57 | M 2.79 | I 2.82 | V 3.33 | D 4 | S 3.73 | T 3.5 | K 3.05 | G 3.85 | H 3.32
Q13: M 2.94 | T 2.56 | F 2.5 | E 3.38 | V 2.45 | H 2.32 | C 2.06 | L 2.48 | K 2.59 | A 3.2 | W 2.23 | D 3.25 | I 2.19 | S 2.75 | Y 2.7 | N 2.65 | R 2.42 | G 3 | P 3.4
L22: Q 3.65 | I 3.18 | N 4.04 | S 4.33 | H 3.42 | R 3.62 | G 3.81 | T 3.85 | M 3.1 | W 2.57 | D 4.7 | F 2.79 | Y 2.47 | P 3.91 | C 3.82 | A 3.73 | K 4.33 | E 4.75 | V 3.21
P18: L 3.07 | C 3.16 | W 3.06 | E 3.66 | T 2.92 | A 3.28 | R 3.57 | Y 2.94 | I 2.87 | V 3.34 | M 2.95 | G 3.31 | N 3.05 | Q 3.63 | H 3.15 | F 2.91 | K 3.36 | D 3.46 | S 3.12
H23: K 3.61 | G 3.14 | M 2.48 | E 3.59 | T 3.39 | P 3.17 | N 3.07 | W 2.6 | F 2.38 | C 2.66 | V 2.97 | R 3.08 | S 2.86 | L 2.53 | Y 2.14 | D 3.85 | I 2.93 | A 3.4 | Q 3.02
L15: G 3.37 | P 2.92 | C 2.54 | S 2.82 | V 3.62 | D 3.81 | M 2.71 | H 2.96 | K 3.07 | Q 3.3 | R 3.28 | I 2.85 | N 2.87 | W 2.5 | T 3.15 | Y 2.97 | F 2.31 | E 3.65 | A 2.81
P17: S 3.22 | Y 2.54 | M 2.27 | N 2.54 | E 3.87 | H 2.52 | W 2.02 | K 3.09 | Q 3.27 | G 2.83 | T 2.41 | L 2.21 | V 2.18 | C 2.84 | F 2.02 | I 1.82 | D 2.74 | A 2.79 | R 2.94
G11: S 2.73 | Y 2.15 | A 2.88 | T 2.53 | M 2.85 | V 2.24 | E 3.06 | D 2.97 | L 1.88 | I 1.71 | F 2.02 | P 2.87 | R 2.48 | H 2.43 | W 1.55 | N 3 | C 1.94 | Q 3.25 | K 2.59
S21: T 3 | H 3.58 | V 2.82 | A 2.36 | L 2.9 | P 3.54 | R 3.21 | D 3.9 | W 1.98 | E 3.59 | C 3.06 | F 2.59 | M 2.01 | I 2.62 | G 2.7 | N 2.73 | Q 3.33 | Y 2.54 | K 3.68
F19: Y 3.29 | G 4.05 | K 3.99 | C 4.24 | A 4.02 | V 3.76 | S 4.19 | L 3.54 | I 3.61 | N 4.37 | T 4.04 | W 2.01 | H 3.69 | D 4.42 | R 4.1 | Q 4.38 | M 4.19 | P 4.41 | E 4.39

Variants of: B2
Assay: as above
Conditions: c terminus: a fixed tail appended

Protein stability index: each site, then its substitutions
N7: F 2.44 | Q 3.33 | E 2.32
H17: K 4.15 | E 4.14 | Q 3.07 | T 3.2
E8: Q 2.75 | S 2.91 | D 3.21 | A 2.16 | N 3 | W 1.33 | K 2.92
E19: G 2.96 | D 3.02 | H 2.34 | F 1.98
Q3: G 3.04
P14: F 2.95 | T 2.77
M4: S 3.07 | K 3.2 | A 3.49
E20: V 1.97 | T 2.83 | K 2.95 | M 2.29
H23: E 3.81 | G 3.63 | P 3.09 | I 2.46
K11: T 3.42 | V 3.4 | I 2.94
H13: M 2.94 | D 3.75
I5: K 3.21 | Y 2.92
R6: W 1.77 | F 2.44 | D 4.3 | S 3.52
L16: Q 3.85 | R 3.84 | H 3.2
L12: Y 3.75 | V 2.97 | P 3.96
L24: C 3.65 | H 3.61
A2: M 2.91 | R 3.76 | D 3.51
K21: Q 4.17
R10: L 3.38 | V 3.73
Y9: S 3.46
K18: P 3.48 | D 3.45
V15: M 3.67 | K 3.29
Q22: T 2.58
R1: W 1.92 | G 3.55 | P 3.38 | M 2.47 | Y 1.77
